± gives the uncertainty stated by the source.
Experiment: self-splicing fitness, log relative to wild type (ln ratio); higher = more splicing; Tetrahymena group I intron in knt gene, E. coli kanamycin selection, DiMSum; sequences stand for … in CUCUCU…GGAGGGAAAAGUUAUCAGGCAUGCACCUGGUAGCUAGUCUUUAAACCAAUAGAUUGCAUCGGUUUAAAAGGCAAGACCGUCAAAUUGCGGGAAAGGGGUCAACAGCCGUUCAGUACCAAGUCUCAGGGGAAACUUUGAGAUGGCCUUGCAAAGGGUAUGGUAAUAAGCUGACGGACAUGGUCCUAACCACGCAGCCAAGUCCUAAGUCAACAGAUCUUCUGUUGAUAUGGAUGCAGUUCACAGACUAAAUGUCGGUCGGGGAAGAUGUAUUCUUCUCAUAAGAUAUAGUCGGACCUCUCCUUAAUGGGAGCUAGCGGAUGAAGUGAUGCAACACUGGAGCCGCUGGGAACUAAUUUGUAUGCGAAAGUAUAUUGAUUAGUUUUGGAGUACUCGUGGUCG
How it was run: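 A randomised library covering all eight P1ex-region intron nucleotides was built with the intron in the knt kanamycin-resistance gene on pET-22b(+) and held in E. coli BL21(DE3). Cells were grown overnight at 37°C or 30°C on LB agar, with or without 25 μg/mL kanamycin, plus 100 μg/mL carbenicillin, 50 μM IPTG and 0.2% rhamnose, and pooled colonies were amplicon-sequenced on an Illumina HiSeq 2500. DiMSum fitness is the error-weighted combination of wild-type-normalised replicate fold changes, kanamycin versus none.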

| Sequence | self-splicing fitness (ln) (30 °C) | self-splicing fitness (ln) (37 °C) |
| --- | --- | --- |
| ACUGAGCAAUAUUACGGCUG | -1.18 ± 0.16 | -0.804 ± 0.19 |
| ACUGAGCAAUAUUACGGGAA | -2.94 ± 0.17 | -2.48 ± 0.24 |
| ACUGAGCAAUAUUACGGGAU | -3.03 ± 0.17 | -2.18 ± 0.22 |
| ACUGAGCAAUAUUACGGUGC | -3.32 ± 0.19 | -1.9 ± 0.18 |
| ACUGAGCAAUAUUACGGUGU | -3.14 ± 0.13 | -1.41 ± 0.1 |
| ACUGAGCAAUAUUACGUAUA | -2.58 ± 0.2 | -1.97 ± 0.25 |
| ACUGAGCAAUAUUACGUUAC | -3.95 ± 0.3 | -2.9 ± 0.38 |
| ACUUAGCAAUAUUACGAAGC |  | -2.25 ± 0.5 |
| ACUUAGCAAUAUUACGACCC | 0.555 ± 0.32 |  |
| ACUUAGCAAUAUUACGAGUU | -2.42 ± 0.12 | -0.552 ± 0.14 |
| ACUUAGCAAUAUUACGAUAA | -2.81 ± 0.27 | -0.457 ± 0.3 |
| ACUUAGCAAUAUUACGCACU | -0.553 ± 0.093 | 0.532 ± 0.12 |
| ACUUAGCAAUAUUACGCAGC | -1.98 ± 0.4 | -1.43 ± 0.19 |
| ACUUAGCAAUAUUACGCCCC | -0.135 ± 0.33 |  |
| ACUUAGCAAUAUUACGCCCG | -1.55 ± 0.17 | 0.138 ± 0.28 |
| ACUUAGCAAUAUUACGCGAU | -3.66 ± 0.36 | -1.13 ± 0.17 |
| ACUUAGCAAUAUUACGCGCG | -1.56 ± 0.11 | -0.437 ± 0.12 |
| ACUUAGCAAUAUUACGCGGA | -2.36 ± 0.11 | -0.613 ± 0.088 |
| ACUUAGCAAUAUUACGCUAC | -2.59 ± 0.34 | -1.9 ± 0.33 |
| ACUUAGCAAUAUUACGCUAU | -3.05 ± 0.24 | -2.09 ± 0.23 |
| ACUUAGCAAUAUUACGGAGA | -3.19 ± 0.28 | -2.07 ± 0.2 |
| ACUUAGCAAUAUUACGGAGC | -3.46 ± 0.3 | -0.469 ± 0.18 |
| ACUUAGCAAUAUUACGGGGC | -3.2 ± 0.18 | -2.55 ± 0.23 |
| ACUUAGCAAUAUUACGGUAC | -3.36 ± 0.21 | -3.57 ± 0.42 |
| ACUUAGCAAUAUUACGGUUC | -2.73 ± 0.16 | -3.35 ± 0.26 |

| Sequence | self-splicing fitness (ln) (30 °C) | self-splicing fitness (ln) (37 °C) |
| --- | --- | --- |
| ACUUAGCAAUAUUACGUAAU | -2.39 ± 0.1 | -1.54 ± 0.12 |
| ACUUAGCAAUAUUACGUCAA | -4.05 ± 0.33 | -3.36 ± 0.3 |
| ACUUAGCAAUAUUACGUCUG | -1.82 ± 0.11 | -0.782 ± 0.15 |
| ACUUAGCAAUAUUACGUGUA | -2.37 ± 0.11 | -1.43 ± 0.095 |
| ACUUAGCAAUAUUACGUGUC | -3.37 ± 0.16 | -2.7 ± 0.25 |
| ACUUAGCAAUAUUACGUUCG | -1.52 ± 0.18 | -0.802 ± 0.18 |
| ACUUAGCAAUAUUACGUUGA | -4.69 ± 0.36 | -2.06 ± 0.12 |
| AGAAAGCAAUAUUACGAGAA | -2.63 ± 0.27 | -1.24 ± 0.25 |
| AGAAAGCAAUAUUACGAGAG | -3.2 ± 0.16 | -2.44 ± 0.17 |
| AGAAAGCAAUAUUACGCCCC | -0.22 ± 0.36 |  |
| AGAAAGCAAUAUUACGCGGA | -2.26 ± 0.13 | -0.649 ± 0.13 |
| AGAAAGCAAUAUUACGCGUC | -1.84 ± 0.12 | -1.32 ± 0.15 |
| AGAAAGCAAUAUUACGCGUG | -1.72 ± 0.087 | -0.548 ± 0.093 |
| AGAAAGCAAUAUUACGGAAU | -2.02 ± 0.15 | -1.74 ± 0.2 |
| AGAAAGCAAUAUUACGGACA | -0.632 ± 0.2 | -0.869 ± 0.29 |
| AGAAAGCAAUAUUACGGCAG | -0.958 ± 0.095 | -1.28 ± 0.12 |
| AGAAAGCAAUAUUACGGCGC | -0.688 ± 0.12 | -1.01 ± 0.15 |
| AGAAAGCAAUAUUACGGGAU | -1.14 ± 0.14 | -1.04 ± 0.12 |
| AGAAAGCAAUAUUACGGGCC | -1.66 ± 0.14 | -1.04 ± 0.13 |
| AGAAAGCAAUAUUACGGUGG | -3.11 ± 0.18 | -2.32 ± 0.17 |
| AGAAAGCAAUAUUACGUAUG | -2.58 ± 0.12 | -3.05 ± 0.19 |
| AGAAAGCAAUAUUACGUGGC | -3.67 ± 0.3 | -1.14 ± 0.19 |
| AGAAAGCAAUAUUACGUUAC | -3.26 ± 0.19 | -1.89 ± 0.18 |
| AGAAAGCAAUAUUACGUUGG | -3.2 ± 0.2 | -0.323 ± 0.12 |
| AGACAGCAAUAUUACGACCG | -1.4 ± 0.12 | -0.429 ± 0.14 |

| Sequence | self-splicing fitness (ln) (30 °C) | self-splicing fitness (ln) (37 °C) |
| --- | --- | --- |
| AGACAGCAAUAUUACGACGA | -1.29 ± 0.13 | -0.547 ± 0.12 |
| AGACAGCAAUAUUACGACGU | 0.00817 ± 0.047 | -0.185 ± 0.051 |
| AGACAGCAAUAUUACGAGUC | -3.06 ± 0.19 | -2.52 ± 0.22 |
| AGACAGCAAUAUUACGAUGA | -2.02 ± 0.12 | -0.531 ± 0.094 |
| AGACAGCAAUAUUACGAUGG | -3.44 ± 0.16 | -2.21 ± 0.16 |
| AGACAGCAAUAUUACGCAAU | -2.41 ± 0.17 | -0.644 ± 0.11 |
| AGACAGCAAUAUUACGCCGU | -3.43 ± 0.21 | -2.91 ± 0.29 |
| AGACAGCAAUAUUACGCGAA | -2.45 ± 0.12 | -0.878 ± 0.1 |
| AGACAGCAAUAUUACGCUCC | -3.32 ± 0.48 | -1.64 ± 0.19 |
| AGACAGCAAUAUUACGUAGU | -3.27 ± 0.1 | -1.88 ± 0.1 |
| AGACAGCAAUAUUACGUAUA | -2.54 ± 0.14 | -0.807 ± 0.13 |
| AGACAGCAAUAUUACGUAUU | -2.58 ± 0.11 | -1.4 ± 0.12 |
| AGACAGCAAUAUUACGUCGG | -2.44 ± 0.15 | -0.528 ± 0.15 |
| AGACAGCAAUAUUACGUCUC | -2.87 ± 0.19 | -3.53 ± 0.35 |
| AGACAGCAAUAUUACGUGAU | -2.36 ± 0.075 | -0.742 ± 0.087 |
| AGACAGCAAUAUUACGUGCA | -0.683 ± 0.069 | -0.00672 ± 0.079 |
| AGACAGCAAUAUUACGUGGC | -3.01 ± 0.19 | -2.12 ± 0.22 |
| AGACAGCAAUAUUACGUUAA | -3.26 ± 0.14 | -1.27 ± 0.087 |
| AGACAGCAAUAUUACGUUAG | -3.69 ± 0.21 | -2.14 ± 0.15 |
| AGACAGCAAUAUUACGUUGU | -3.02 ± 0.13 | -2.21 ± 0.12 |
| AGAGAGCAAUAUUACGAAAA |  | -1.5 ± 0.5 |
| AGAGAGCAAUAUUACGACAG | -3.47 ± 0.43 | -2.52 ± 0.41 |
| AGAGAGCAAUAUUACGAGUC |  | -2.23 ± 0.29 |
| AGAGAGCAAUAUUACGAUCG | -1.94 ± 0.11 | -0.822 ± 0.18 |
| AGAGAGCAAUAUUACGCAAA | -2.1 ± 0.32 | -2.69 ± 0.48 |

| Sequence | self-splicing fitness (ln) (30 °C) | self-splicing fitness (ln) (37 °C) |
| --- | --- | --- |
| AGAGAGCAAUAUUACGCGAA | -3.26 ± 0.37 | -2.82 ± 0.34 |
| AGAGAGCAAUAUUACGCGCG |  | -1.3 ± 0.48 |
| AGAGAGCAAUAUUACGGGCG | -3.07 ± 0.34 | -2.3 ± 0.5 |
| AGAGAGCAAUAUUACGGGCU | -3.62 ± 0.23 | -1.48 ± 0.42 |
| AGAGAGCAAUAUUACGGUUG |  | -1.45 ± 0.41 |
| AGAGAGCAAUAUUACGUACU | -1.2 ± 0.13 | -1 ± 0.15 |
| AGAGAGCAAUAUUACGUCAU |  | -1.01 ± 0.16 |
| AGAGAGCAAUAUUACGUGAU | -3.94 ± 0.18 | -2.1 ± 0.23 |
| AGAGAGCAAUAUUACGUUGA | -2.77 ± 0.23 | -2.06 ± 0.26 |
| AGAUAGCAAUAUUACGAAUA | -2.76 ± 0.49 | -2.16 ± 0.48 |
| AGAUAGCAAUAUUACGAAUU | -2.43 ± 0.15 | -1.25 ± 0.16 |
| AGAUAGCAAUAUUACGAGAC | -3.94 ± 0.23 | -2.96 ± 0.22 |
| AGAUAGCAAUAUUACGAGCA | -0.984 ± 0.1 | -0.95 ± 0.11 |
| AGAUAGCAAUAUUACGAUCA | -0.325 ± 0.089 | -0.00339 ± 0.11 |
| AGAUAGCAAUAUUACGCCAG | -3.6 ± 0.5 | -1.78 ± 0.39 |
| AGAUAGCAAUAUUACGCGAA | -3.1 ± 0.28 | -0.447 ± 0.17 |
| AGAUAGCAAUAUUACGCGCA | -0.594 ± 0.063 | -0.129 ± 0.094 |
| AGAUAGCAAUAUUACGCUAC | -2.97 ± 0.44 | -2.56 ± 0.38 |
| AGAUAGCAAUAUUACGCUCC |  | 0.0911 ± 0.49 |
| AGAUAGCAAUAUUACGCUGU | -3.36 ± 0.25 | -3.22 ± 0.4 |
| AGAUAGCAAUAUUACGGACA | -0.869 ± 0.15 | -0.224 ± 0.16 |
| AGAUAGCAAUAUUACGGAUU | -1.39 ± 0.1 | 0.228 ± 0.13 |
| AGAUAGCAAUAUUACGGCAU | -0.734 ± 0.11 | 0.242 ± 0.12 |
